The nanobody polyreactivity screen of Harvey et al. (2022)

Test: yeast display, Sf9 membrane polyspecificity reagent, FACS + sequencing; frameworks hold sequencing errors
Outline: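 Sorting gates, low and high (top ~1%), were placed on anti-HA fluorescence to track expression and on streptavidin fluorescence to track reagent binding. A clone's polyreactivity label is taken from the gate it came out of. The reagent was 10% biotinylated, detergent-solubilized Sf9 membrane, applied for 1 hour at 4 °C to galactose-induced yeast display cells.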

QVQLVESGGGLVQAGGSLRLSCAASGRTFSSYAMGWYIQAPGKERELVAAITRGGGSTYYADSVKGRFTISRDNAKNTVYLQMNSLKPEDTAVYYCAADYGRDYRAFNYWGQGTQVTVSS
polyreactivity (PSR sort gate): high polyreactivity

QVQLVESGGGLVQAGGSLRLSCAASGFTFYDYAMVWYRQAPGKERELVAGITSTGRTYYADSVKGRFTISRDNAKNTVYLQMNSLKPEDTAVYYCNARTLPNYYRRYDYWGQGTEVTVSS
polyreactivity (PSR sort gate): high polyreactivity

QVQLVESGGGLVQAGGSLRLSCAASGFTFRPYAMGWYRQAPGKERELVAAISTSGATTYYADSVKGRFTISRDNAKITVYLQMNSLKPEDTAVYYCNKVYWHHPWEYGYWGQGTQVTVSS
polyreactivity (PSR sort gate): high polyreactivity

QVQLVESGGGLVQAGGSLRLSCAASGRIFWPYAMGWYRQAPGKERELVAAITSGGSTYYADSVKGRFTISRDNAKNTVYLQMNSLKPEDTAVYYCAKRSSGVSVPVAYGGIKRYNSWGQGTQVTVSS
polyreactivity (PSR sort gate): low polyreactivity

QVQLVESGGGVVQAGGSLRLSCAASGRIFRYYAMGWYRQAPGKERELVAGITTGGGSTYYADSVKGRFTISRDNAKNTVYLQMNSLKPEDTAVYYCAARYYTTFYWGQGTQVTVSS
polyreactivity (PSR sort gate): high polyreactivity

QVHLVESGGGLVQAGGSLRLSCAASGFIFGRNAMGWYRQAPGKEREFVAALTRIGGNTYYADSVKGRFTISRDNAKNTVYLQMNSLKPEDTAVYYCAARLSYFHAYGFYWGQGTQVTVSS
polyreactivity (PSR sort gate): high polyreactivity

QVQLVESGAGLVQAGGSLRLSCAASGSTFDGNVMGWYRQEPGKESELVAAISGGGSTNYADSVKGRFTISRDNAKNTVYLQMNSLKPEDTAVYYCATQYWHFPYWQYKYDYWGQGTQVTVSS
polyreactivity (PSR sort gate): low polyreactivity

QVQLVESGGGLVQAGGSLRLSCAASGYIFLGNAMGWYRQAPGKERELVAAISRSGGSTYYADSVKGRFTISRDNAQNTVYLQMNSLKPEDTAVYYCNRDRQKIGYTYKYDYWGQGTQVTVSS
polyreactivity (PSR sort gate): high polyreactivity

QVQLVESGGGLVQAGGSLRLSCAASGRTFVTYAMGWYRQAPGKERELVAAISKRGSRTYYADSVKGRFTISRDNAKNTVYLQMNSLKPEDTAVYYCNADPYRTSYDYWGQGTQVTVSS
polyreactivity (PSR sort gate): high polyreactivity

QVQLVESGGCLVQAGGSLRLSCAASGRIFSSYAMGWYRQAPGKERELVAAIRSSGDRTYYADSVKGRFTISRDNAKNTVYFQMNSLKPEDTAVYYCAADLRRFQSYYYWGQGTQVTVSS
polyreactivity (PSR sort gate): high polyreactivity

QLQLVDSGGGLVQAGGSLRLSCAASGLIFPAYTMGWYRQAPGKQRELVAAISRSGGSTYYADSVKGRFTISRDNAKNTVYLQMNSLKTEDTAVYYCAAFYSGGYDYWGQGTQVTVSS
polyreactivity (PSR sort gate): high polyreactivity

QVQLVESGGGLVQAGGSLRLSCAASGFTFYIYAMGWYRQAPGKERELVAAISSGGGRTYYADSVKGRFTISRDNAKNTVYLQMNSLKPEDTAVYYCAARGRAFSYNNYGSDYWGQGTQVTVSS
polyreactivity (PSR sort gate): high polyreactivity

QVQLEESGGGLVQAGGSIRLSCAASGSTFYTNAMGWYRQAPGKERELVAAISSSGDSTYYADSVKGRFTISRDTAKNTVYLQMNSLKPEDTAVYYCNADRRSYNGFRYYYWGQGTQVTVSS
polyreactivity (PSR sort gate): low polyreactivity

QVQLVESGGGLVQAGASLRLSCADSGRISESNDMGWNRQAPGKQRELVAAISSSGGSTYYADSVMGRFPISRDNAKNTVYLQMNSLKPEDTALYYCNAVYYRTVLKIGVYEYDYWGQGTQVTVSS
polyreactivity (PSR sort gate): low polyreactivity

QVQLVESGGGLVQAGGSLRLSCAASGFTFYYYAMGWYRQAPGKERELVAAISRGGGNTYYADSVKGRFTISRDNAKNTVYLQMNSLKPEDTAVYYCAARRPVYRIYGDRGRWYNYWGQGTQVTVSS
polyreactivity (PSR sort gate): high polyreactivity

QVQLVESGGGLVQAGGSLRLSCAASGSIFRWNAMGWYRQAPGKERELVAAISKSGGRRYYADSVKGRFTISRDNAKNTVYLQMNSVKPEDTAVYYCAAGYTTTQYYGPQYDYWGQGTQVTVSS
polyreactivity (PSR sort gate): high polyreactivity

QVQLVESGGGLVQAGGSLRLSCAPSGRTVRYNAMGWYRQAPGKERELVARITWSGGRTYYADSVKGRFTISRDNAKNTVYLQMNSLKPEDTAVNYGNAPSIAGYAEYNSHDYWGQGTQVTVSS
polyreactivity (PSR sort gate): high polyreactivity

QVQLVESGGGLVQAGGSLRLSCADSGRTFYYYAMGWYRQAPGKERELVASITYYADSVKGRFTISRDNAKNTVYLQMNSLKPVDTAVYYCAKDLYSNDLYRRYDYWGQGTQVTVSS
polyreactivity (PSR sort gate): low polyreactivity

QVQLVESGGGLVQAGGSLRLSCAASGSIFYPYDMGWYRQAPGKERELVATINWSSGRTNYADSVKGRFTISRDNAKNTVYLQMNSLKPEDTAVYYCNAVTYSRRYAYYYWGQATQVTVSS
polyreactivity (PSR sort gate): high polyreactivity

QVQLVESGGGLVQAGGSLRLSCAASGFIFYRYAMGWYRQAPGKERELVAAISYSGGSTYYADSVKGRFTISRDNAKNTVYLQMISLKPEDTAVYYCAAGSKYRYDYWGQGTQVTVSS
polyreactivity (PSR sort gate): high polyreactivity

QVQLVESGGGLVQAGGSLRLSCAASGSIFSSYGMGWYRQAPGKERELVATITGSGGSTYYSDSVKGRLTISRVNAKNTVYLQMNSLKPEDTAVYYCATRLGWFVKYYTGRYYYWGQGTQVTVSS
polyreactivity (PSR sort gate): high polyreactivity

QVQLVESGGGLVQAGGSLRLSCAASGFTFVSNAMVWSRQAPGKERELVADITSDGSTNYADSVKGRFTISRDNAKNTVYLQMNSLKPEDTAVYHCATDQRSNTWVNQFDYWGQGTQVTVSS
polyreactivity (PSR sort gate): low polyreactivity

QVQLVESGAGLVQAGGSLRLSCASSGTIFWGYAMGWYRQAPGKERELVAAITDSGGRTYYADSVKGRFTISRDNAKNTVYLQMNCLKPEDTAVYYCAADYYSQYYYYAVPDRDYWGQGTQVTVSS
polyreactivity (PSR sort gate): low polyreactivity

QVQLVESGGGLVQAGGSLRLSCAASGRTFVSYAMGWYRQAPGKERELVATITGSTGGTYYADSVKGRFTISRDNAKNTVYLQMNSLKPEDTAVYYCAADRTTYTYYLPYDYWGQGTQVTVSS
polyreactivity (PSR sort gate): low polyreactivity

QVQLVESGGGLVQAGGSLRLSCAASGSTFFGNAMGWYRQAPGTERELVAAIRFSGVGTYYADSVKGRFTISLDNAKNTVYLQMNSLKPEDTAVYYSAAESYYKYYWGQGTQVTVSS
polyreactivity (PSR sort gate): low polyreactivity

QVQLVESGGGLVQAGGSLRLSCAASGRTFLRYAMGWYRQAPGKERELVAAITYGGRTNYADSVKGRFTISRDNAKNTVYLQMNSLKPEDTAVYYCAADRTYYYGLRVDYWGQGTQVTVSS
polyreactivity (PSR sort gate): high polyreactivity

QVQLVESGGGLVQAGGTLRLSCPASGRNILGYAMGWYRPAPGKERELVAALRRSGGHTFYADSVKGRFTISRDNAKNRVYFQMNSLKPEDTAVYYCAASTSGAIRRDGFWGQGTQVSVSS
polyreactivity (PSR sort gate): low polyreactivity

QVQLVESGGGLVQAGGSLRLSCAASGSTFDYYDMGWYRQAPGKERELVATVTSGGSTNYADSVKGRFTISRDNAKNTVYLQMNSLKPEDTAVYYCAADIGGDGEGYDYWGQGTQVTLSS
polyreactivity (PSR sort gate): low polyreactivity

QVQLVESGGRLVQAGGSLRLSCAASGPIFAPYDMGWYRQAPGKERELVAAISRSGGSTYYADSVKGRFTISRDNAKNTVYLQMNSLKPEETPVYSCAAGLFVGFDYWGQGTQVTVTS
polyreactivity (PSR sort gate): high polyreactivity

QVQLVESGVGLVQAGGSLRLSCAASGITFYGYTMGWYRQAPGKEMELVASIRWRGGNTYYADSVKGRFTISRDNAKITVYLQMNSLKPEDTAVYYCNARARVYYYKEIVAYDYWGQGTQVTVSS
polyreactivity (PSR sort gate): high polyreactivity

QVQLVESGGGLVQAGGSLRLSCAASGLTFVYYAMGWYRQAPGKERELVAAISRSGGATYYADSVKGRFTISRDNAKNTVYLQMNSLKPEDTAVYYCAADATKWIGVVTMDYWGQGTQVTVAS
polyreactivity (PSR sort gate): high polyreactivity

QVHLVESGGALVQAGGSLRLSCAASGRIFGGYTMGWYRQAPGKEREFVAAITSSGGSTYYADSVKGRFTISRDNAKNTVYLQMNSLKPEDTAVYYCAVDDYYYDYDYWGQGTQVTVSS
polyreactivity (PSR sort gate): low polyreactivity

QVQLVESGGGLVQAGGRLRLSCAASGSIFQFYAMGWYRQAPGKERELVAAINWSGGSTYYADSVKGRFTISRDNAKNTVYLQMNSLKPEETAVYYCNALRRIGRYYKAGGYGYWGQGTQVTVSS
polyreactivity (PSR sort gate): high polyreactivity

QVQLVESGGGLVQAGGSLRLSCAASGRTFEYNAMGWYRQAPGKEREFVAAITYSGGGTYYADSVKGRFTISRDNAKNTVYLQMNSLKPEDTAVYYCARERTRVHKHYYWGQGTQVTVSS
polyreactivity (PSR sort gate): low polyreactivity

QVQLVESGGCLDQAGGSLRLSCAASGITFGPYAMGWYSQAPGKERELVAAITWGGGSTYYADSVKGRFTLSRDNAKNTDYLLMNSLKPEDTADYYCNAEGSTTSRYLPYDYWGQGTQVTVSS
polyreactivity (PSR sort gate): low polyreactivity

QVQLVESGGGLVQAGGSFRLSCAASGSIFVVYAMGWYRQAPGKERELVAAITSGGSTYYADSVKGRFTISRDNAKNTVYLQMNSLKPEDTAVYYCATTYRDGVYELTTFDYWGQGTQVTVSS
polyreactivity (PSR sort gate): low polyreactivity

QVQLVESGGGLVQAGGSLRLSCAASGRTFKYNAMGWYRPAPGKERELVAAISSTGSTNYADSVKGRFTISRDNAKNTVYLQMNSLKPEDTAVYYCAASYFFVQWGWYYYWGQGTQVTVSS
polyreactivity (PSR sort gate): low polyreactivity

QVQLVESGGGLVQAGGSLRLSCAASGRTSVIYAMGWYRQAPGKERELVASIRRGGSTSYADSVKGRFTISRDNAKNTVYLQMNSLIPEDTAVYYCAATLVRRARSGPMGYWGQGTQVTVSS
polyreactivity (PSR sort gate): high polyreactivity

QVQLVESGGGLVQAGGSLRLSCAASGSIFTFYAMGWYRQAPGKERELVAAISYGGGITYYADSVKGRFTISRDNAKISVYLQMNSLIPEDSAVYYCAADDGYYNLYFDYDFWGQGTQLTVSS
polyreactivity (PSR sort gate): low polyreactivity

QVQLVESGGGLVQAGGSLPLSCAASGRTFPVYAMGWYRQAPGKERELVARINSGGRTTDADSVKGRFTISRDNAKNTVYLPKNSLKPEDSAVYYCNADSTYFRFDYWGQGTQVTVSS
polyreactivity (PSR sort gate): high polyreactivity

QVQLVESGGGLVQAGGSLRLSCAASGFIFRRYAMGWYRQAPGKERELVAAISWSGGSTYYADSVKGRFTISRDNAKNTVYLQMNSLKPEDTAVYYCAKVPTSASPYDHWGQGTQVTVSS
polyreactivity (PSR sort gate): high polyreactivity

QVQLVESGGGLVQAGGSLRLSSAASGLNFQRNTMGWSRQAPVKERELVAAISRSGGSTYYADSVKGRFTISRDNAKNTVYLQMNSLKPEDTAVYYCAALIFRHRGKDDDYWGQGTQVTVSS
polyreactivity (PSR sort gate): high polyreactivity

QVQLGESGGGLVQAGGSLRLSCAASGRTLSYYAMGWYRPAPGNDRELVAAISGSAGSTYYADSVKGRFTISRDNAKNTVYLQMNSLKPEDTAVYYCAAYIYSYDEGYYWGQGTQVTVSS
polyreactivity (PSR sort gate): high polyreactivity
